# Laboratory results from PMC11574045, “A cofactor-induced repressive type of transcription factor condensation can be induced by synthetic peptides to suppress tumorigenesis” (The EMBO Journal, 2024).
# B1: SNW1 (protein, UniProt Q13573 2-536, looked up)
# SNW domain-containing protein …: ALTSFLPAPTQLSQDQLEAEEKARSQRSRQTSLVSSRREPPPYGYRKGWIPRLLEDFGDGGAFPEIHVAQYPLDMGRKKKMSNALAIQVDSEGKIKYDAIARQGQSKDKVIYSKYTDLVPKEVMNADDPDLQRPDEEAIKEITEKTRVALEKSVSQKVAAAMPVRAADKLAPAQYIRYTPSQQGVAFNSGAKQRVIRMVEMQKDPMEPPRFKINKKIPRGPPSPPAPVMHSPSRKMTVKEQQEWKIPPCISNWKNAKGYTIPLDKRLAADGRGLQTVHINENFAKLAEALYIADRKAREAVEMRAQVERKMAQKEKEKHEEKLREMAQKARERRAGIKTHVEKEDGEARERDEIRHDRRKERQHDRNLSRAAPDKRSKLQRNENRDISEVIALGVPNPRTSNEVQYDQRLFNQSKGMDSGFAGGEDEIYNVYDQAWRGGKDMAQSIYRPSKNLDKDMYGDDLEARIKTNRFVPDKEFSGSDRRQRGREGPVQFEEDPFGLDKFLEEAKQHGGSKRPSDSSRPKEHEHEGKKRRKE
# B2: SOX10 (protein, UniProt P56693 1-466, looked up)
# Transcription factor SOX-10: MAEEQDLSEVELSPVGSEEPRCLSPGSAPSLGPDGGGGGSGLRASPGPGELGKVKKEQQDGEADDDKFPVCIREAVSQVLSGYDWTLVPMPVRVNGASKSKPHVKRPMNAFMVWAQAARRKLADQYPHLHNAELSKTLGKLWRLLNESDKRPFIEEAERLRMQHKKDHPDYKYQPRRRKNGKAAQGEAECPGGEAEQGGTAAIQAHYKSAHLDHRHPGEGSPMSDGNPEHPSGQSHGPPTPPTTPKTELQSGKADPKRDGRSMGEGGKPHIDFGNVDIGEISHEVMSNMETFDVAELDQYLPPNGHPGHVSSYSAAGYGLGSALAVASGHSAWISKPPGVALPTVSPPGVDAKAQVKTETAGPQGPPHYTDQPSTSQIAYTSLSLPHYGSAFPSISRPQFDYSDHQPSGPYYGHSGQASGLYSAFSYMGPSQRPLYTAISDPSPSGPQSHSPTHWEQPVYTTLSRP
# B3: BCL6B (protein, UniProt Q8N143 1-479, looked up)
# B-cell CLL/lymphoma 6 member …: MGSPAAPEGALGYVREFTRHSSDVLGNLNELRLRGILTDVTLLVGGQPLRAHKAVLIACSGFFYSIFRGRAGVGVDVLSLPGGPEARGFAPLLDFMYTSRLRLSPATAPAVLAAATYLQMEHVVQACHRFIQASYEPLGISLRPLEAEPPTPPTAPPPGSPRRSEGHPDPPTESRSCSQGPPSPASPDPKACNWKKYKYIVLNSQASQAGSLVGERSSGQPCPQARLPSGDEASSSSSSSSSSSEEGPIPGPQSRLSPTAATVQFKCGAPASTPYLLTSQAQDTSGSPSERARPLPGSEFFSCQNCEAVAGCSSGLDSLVPGDEDKPYKCQLCRSSFRYKGNLASHRTVHTGEKPYHCSICGARFNRPANLKTHSRIHSGEKPYKCETCGSRFVQVAHLRAHVLIHTGEKPYPCPTCGTRFRHLQTLKSHVRIHTGEKPYHCDPCGLHFRHKSQLRLHLRQKHGAATNTKVHYHILGGP
# B4: SOX7 (protein, UniProt Q9BT81 1-388, looked up)
# Transcription factor SOX-7: MASLLGAYPWPEGLECPALDAELSDGQSPPAVPRPPGDKGSESRIRRPMNAFMVWAKDERKRLAVQNPDLHNAELSKMLGKSWKALTLSQKRPYVDEAERLRLQHMQDYPNYKYRPRRKKQAKRLCKRVDPGFLLSSLSRDQNALPEKRSGSRGALGEKEDRGEYSPGTALPSLRGCYHEGPAGGGGGGTPSSVDTYPYGLPTPPEMSPLDVLEPEQTFFSSPCQEEHGHPRRIPHLPGHPYSPEYAPSPLHCSHPLGSLALGQSPGVSMMSPVPGCPPSPAYYSPATYHPLHSNLQAHLGQLSPPPEHPGFDALDQLSQVELLGDMDRNEFDQYLNTPGHPDSATGAMALSGHVPVSQVTPTGPTETSLISVLADATATYYNSYSVS
# B5: BHLHA9 (protein, UniProt Q7RTU4 1-235, looked up)
# Class A basic …: MLRGAPGLGLTARKGAEDSAEDLGGPCPEPGGDSGVLGANGASCSRGEAEEPAGRRRARPVRSKARRMAANVRERKRILDYNEAFNALRRALRHDLGGKRLSKIATLRRAIHRIAALSLVLRASPAPRGPCGHLECHGPAARGDTGDTGASPPPPAGPSLARPDAARPSVPSAPRCASCPPHAPLARPSAVAEGPGLAQASGGSWRRCPGASSAGPPPWPRGYLRSAPGMGHPRS
# B6: SP100 (protein, UniProt P23497 2-879, looked up)
# Nuclear autoantigen Sp-100: AGGGGDLSTRRLNECISPVANEMNHLPAHSHDLQRMFTEDQGVDDRLLYDIVFKHFKRNKVEISNAIKKTFPFLEGLRDRDLITNKMFEDSQDSCRNLVPVQRVVYNVLSELEKTFNLPVLEALFSDVNMQEYPDLIHIYKGFENVIHDKLPLQESEEEEREERSGLQLSLEQGTGENSFRSLTWPPSGSPSHAGTTPPENGLSEHPCETEQINAKRKDTTSDKDDSLGSQQTNEQCAQKAEPTESCEQIAVQVNNGDAGREMPCPLPCDEESPEAELHNHGIQINSCSVRLVDIKKEKPFSNSKVECQAQARTHHNQASDIIVISSEDSEGSTDVDEPLEVFISAPRSEPVINNDNPLESNDEKEGQEATCSRPQIVPEPMDFRKLSTFRESFKKRVIGQDHDFSESSEEEAPAEASSGALRSKHGEKAPMTSRSTSTWRIPSRKRRFSSSDFSDLSNGEELQETCSSSLRRGSGSQPQEPENKKCSCVMCFPKGVPRSQEARTESSQASDMMDTMDVENNSTLEKHSGKRRKKRRHRSKVNGLQRGRKKDRPRKHLTLNNKVQKKRWQQRGRKANTRPLKRRRKRGPRIPKDENINFKQSELPVTCGEVKGTLYKERFKQGTSKKCIQSEDKKWFTPREFEIEGDRGASKNWKLSIRCGGYTLKVLMENKFLPEPPSTRKKRILESHNNTLVDPCEEHKKKNPDASVKFSEFLKKCSETWKTIFAKEKGKFEDMAKADKAHYEREMKTYIPPKGEKKKKFKDPNAPKRPPLAFFLFCSEYRPKIKGEHPGLSIDDVVKKLAGMWNNTAAADKQFYEKKAAKLKEKYKKDIAAYRAKGKPNSAKKRVVKAEKSKKKKEEEEDEEDEQEEENEEDDDK
# B7: SP110 (protein, UniProt Q9HB58 1-689, looked up)
# Sp110 nuclear body protein: MFTMTRAMEEALFQHFMHQKLGIAYAIHKPFPFFEGLLDNSIITKRMYMESLEACRNLIPVSRVVHNILTQLERTFNLSLLVTLFSQINLREYPNLVTIYRSFKRVGASYEWQSRDTPILLEAPTGLAEGSSLHTPLALPPPQPPQPSCSPCAPRVSEPGTSSQQSDEILSESPSPSDPVLPLPALIQEGRSTSVTNDKLTSKMNAEEDSEEMPSLLTSTVQVASDNLIPQIRDKEDPQEMPHSPLGSMPEIRDNSPEPNDPEEPQEVSSTPSDKKGKKRKRCIWSTPKRRHKKKSLPGGTASSRHGIQKKLKRVDQVPQKKDDSTCNSTVETRAQKARTECARKSRSEEIIDGTSEMNEGKRSQKTPSTPRRVTQGAASPGHGIQEKLQVVDKVTQRKDDSTWNSEVMMRVQKARTKCARKSRLKEKKKEKDICSSSKRRFQKNIHRRGKPKSDTVDFHCSKLPVTCGEAKGILYKKKMKHGSSVKCIRNEDGTWLTPNEFEVEGKGRNAKNWKRNIRCEGMTLGELLKRKNSDECEVCCQGGQLLCCGTCPRVFHEDCHIPPVEAKRMLWSCTFCRMKRSSGSQQCHHVSKTLERQMQPQDQLIRDYGEPFQEAMWLDLVKERLITEMYTVAWFVRDMRLMFRNHKTFYKASDFGQVGLDLEAEFEKDLKDVLGFHEANDGGFWTLP
# B8: SP6 (protein, UniProt Q3SY56 1-376, looked up)
# Transcription factor Sp6: MLTAVCGSLGSQHTEAPHASPPRLDLQPLQTYQGHTSPEAGDYPSPLQPGELQSLPLGPEVDFSQGYELPGASSRVTCEDLESDSPLAPGPFSKLLQPDMSHHYESWFRPTHPGAEDGSWWDLHPGTSWMDLPHTQGALTSPGHPGALQAGLGGYVGDHQLCAPPPHPHAHHLLPAAGGQHLLGPPDGAKALEVAAPESQGLDSSLDGAARPKGSRRSVPRSSGQTVCRCPNCLEAERLGAPCGPDGGKKKHLHNCHIPGCGKAYAKTSHLKAHLRWHSGDRPFVCNWLFCGKRFTRSDELQRHLQTHTGTKKFPCAVCSRVFMRSDHLAKHMKTHEGAKEEAAGAASGEGKAGGAVEPPGGKGKREAEGSVAPSN
# System: HEK293FT cells transfected with TF library
# Assay: Screening of TF condensates based on fluorescent puncta
# Type: cell-based
# Settings: Figure 1B numerical data; TF library screen, one value per transcriptional factor
# Procedure, shortened: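 Each TF construct was introduced into HEK293FT cells using PEI at 4.8 μg/ml; glucose deprivation versus normal medium lasted 12 h. Automated confocal-style imaging of tagged TF staining, 50 fields per well, gave the puncta data.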
row,Molecule,Z score of condensed fraction
1,B1,-0.7186
2,B2,-0.1457
3,B3,-0.2442
4,B4,-0.1184
5,B5,-1.033
6,B6,-0.9758
7,B7,-0.422
8,B8,2.974
